Assay results: the DeepSol protein solubility set

assay: soluble on expression in E. coli; label from the status in PepcDB or PDB records

Q: With “MKTVVFAYHDMGCLGIEALLAAGYEISAIFTHTDNPGEKAFYGSVARLAAERGIPVYAPDNVNHPLWVERIAQLSPDVIFSFYYRHLIYDEILQLAPAGAFNLHGSLLPKYRGRAPLNWVLVNGETETGVTLHRMVKRADAGAIVAQLRIAIAPDDIAITLHHKLCHAARQLLEQTLPAIKHGNILEIAQRENEATCFGRRTPDDSFLEWHKPASVLHNMVRAVADPWPGAFSYVGNQKFTVWSSRVHPHASKAQPGSVISVAPLLIACGDGALEIVTGQAGDGITMQGSQLAQTLGLVQGSRLNSQPACTARRRTRVLILGVNGFIGNHLTERLLREDHYEVYGLDIGSDAISRFLNHPHFHFVEGDISIHSEWIEYHVKKCDVVLPLVAIATPIEYTRNPLRVFELDFEENLRIIRYCVKYRKRIIFPSTSEVYGMCSDKYFDEDHSNLIVGPVNKPRWIYSVSKQLLDRVIWAYGEKEGLQFTLFRPFNWMGPRLDNLNAARIGSSRAITQLILNLVEGSPIKLIDGGKQKRCFTDIRDGIEALYRIIENAGNRCDGEIINIGNPENEASIEELGEMLLASFEKHPLRHHFPPFAGFRVVESSSYYGKGYQDVEHRKPSIRNAHRCLDWEPKIDMQETIDETLDFFLRTVDLTDKPS” as the sequence, how does the “soluble on expression in E. coli” value read?
A: soluble

Q: Which “soluble on expression in E. coli” value does the source give for “MKTYDVVVVGAGMLGIAHAWAAARRGLSVAVVERSQRAHGATIRNFGQVLVTGQAPGVMARHARQSRELWLELAAGAGFHVRANGSLVLARSALEQDVLEEFAAARLQAEGYRAELLSGRELARLFDGRLGHHCAALRGHDDLQIYSREALPAITAYLADRFGVEFLTATLASAVREGVVQTSAGALRGRHAFVCPGHDYLTLAPELFAPLGLQVSCLQMLRVAFETRPFALDRPLLTGLSCVYYGAFSDLPTARTLRESLQRHEPDLLDNGIHLLVSPTPHGELIIGDSHRYGVDALPFNDEQVDCAMLDLAQQALGCRLRVIERWQGVYGAHGPAPFSVLPVDDQTTVAVMHSGVGMTVGLAVGENTVQARLGLEHHHHHH” here?
A: not soluble

Q: For “MKVDLFDFHLPEELIAQTPLPDRAASRLMVLDKRTGAIRHETFRNIISYLNPGDCLVLNDTRVMPARLYGEKEETGGTVEVLLLKQLDGDRWETLVKPGKRVKPGTKLTFGEGKLEAVCLDTLEHGGRVLEFSYDGLFYEVLAELGEMPLPPYIKEKLDDPERYQTVYAREIGSAAAPTAGLHFTEELLDAIREKGVHIVFITLHVGLGTFRPVQVDDVEKHDMHAEFYQMSEETAETLNRVREQGGRIIAVGTTSTRTLETIAGKHNGRFVAESGWTDIFIYPGYEFKGIDGLVTNFHLPKSTLIMLVSALAGRENILHAYQVAVKERYRFFSFGDAMLII”, which “soluble on expression in E. coli” value is on record?
A: soluble

Q: Which “soluble on expression in E. coli” value does the source give for “MKVDVDEKTYIITMANDITKLYEENKRNLHYSITDPLTGAYNRKYLNDRFDIFIGDYIVLIDLDNFKMINDYEGHNVGDKILCDFVSLLNKELINSTSIIRLGGDEFIVIFSSDVDKNYVYSQLEALRENFLKVFSKYKYLSFSYGVDTVKRNLKLTIVELDKKMYKNKEKNKKKFDKNLEHHHHHH” here?
A: soluble

Q: Which “soluble on expression in E. coli” value does the source give for “MKVGIVLNPHAGGGFDDLKRRVVVRVLKKLDGEFVTADKVAELLGIEAERVKVKETNTRLDTVNLVKALDGNVDVIAVFGGDGTVSDAASAKPQTPLLCIGIGTTNVSPALCPPDFDRLEEVEMRGLVVKFGGEERVAFNDVVVGSTILSTVDGKRVQVDARRYMRGEKVIATPRKFRARVEVGERVVEGVFGNIFVAMTDRRFLGKGIAGGASLSAFLGFKGVVACVSEGIVVSTYTKEDLRRVEPIVTSTISFDDEVVKIDADEVVSCDGNPLGVGRAEVAIEDGVVRVLKPFKEEE” here?
A: soluble

Q: With “MKVGSQVIINTSHMKGMKGAEATVTGAYDTTAYVVSYTPTNGGQRVDHHKWVIQEEIKLEHHHHHH” as the sequence, how does the “soluble on expression in E. coli” value read?
A: not soluble

Q: Which “soluble on expression in E. coli” value does the source give for “MKVIMTTKVDKASMNIMNKLIENFGFKETEYVFDGNPVYKRGDVLILTTNDEMIYYDYLDREIENQLGFKPEIIAFASRHSSKQKLPALTTHVTGNWGKAMYGGKDESFAVAIPSAMKLSLLKMSELNDLGWTVCYEATHHGPTELEVPSFFIEIGSSEEEWINDRAGEIIAETIIYVLDNYEKGRSKFKVALGIGGGHYAPKQTKRALEGDLAFGHILPKYAQPVSRDVMIKALNRFGEKVEAIYVDWKGSRGETRQLAKSLAQELGLEFIKD” here?
A: soluble

Q: With “MKVKKWVTQDFPMVEESATVRECLHRMRQYQTNECIVKDREGHFRGVVNKEDLLDLDLDSSVFNKVSLPDFFVHEEDNITHALLLFLEHQEPYLPVVDEEMRLKGAVSLHDFLEALIEALAMDVPGIRFSVLLEDKPGELRKVVDALALSNINILSVITTRSGDGKREVLIKVDAVDEGTLIKLFESLGIKIESIEKEEGF” as the sequence, how does the “soluble on expression in E. coli” value read?
A: not soluble

Q: For “MKVLEYRFAIAPMFHFIANKSMEAGLHVCDGHAKQTVQLFMNDAVSEKGKKRIGAIQYEGSNDYTAKEPCMVNWRFERALLPDGLKQDLEAITAFRRDQNEGTAINPNAQSIAFKFEALTDAAKETIEAITAVLQKHARC”, which “soluble on expression in E. coli” value is on record?
A: not soluble

Q: For “MKVPHVIAELVSEFSGFQHTPDFKASRSTGNFEEGSEEGTSGSHKPEEHHHKEHHGHSLYFGKHSGKKHLPPVVENDGDTHSNHSDVSGSGSSLKEKKHHGLTAHFKDLFHIGHHHHHHGEHPHSKQNSGASTPARKNSTGSECPCSKQEQCHKHSINITVGADEVPTVLATPPNEQNILHAHFIKNQSPCISRVVSSSSLKEKLHKIKRTTSSDSDTDFPEKKCSVASYRVVTH”, which “soluble on expression in E. coli” value is on record?
A: not soluble

Q: For “MKVRYLTSALLLAMTSGLAAAASVDIRHEYVPDRDGDEHRDRIYVSHRFDNQIGFSVEAKWNYKDGHMGNAGHETGVSYRWKATDNFSLTPGINIDASPSGASVFKYNLTGAYKINDEWDVAARIRHGYKNTDDSRYNQLNLYANRKFEWGKLGVEAEYKDIHGGEGGWKDKGHDQLIDFKGEYTKLESGVIPFFAIAAITHKGDGSEFKDEYVPRFRVGLKYNF”, which “soluble on expression in E. coli” value is on record?
A: not soluble

Q: For “MKVTLPDFRRAGVLVVGDVMLDRYWYGPTCRISPEAPVPVVKVDTIEERPGGAANVAMNIASLGAVARLVGLTGIDDAARALICKLSEVRVRCDFVSVPTHPTITKLRVLSRNQQLIRLDFEEGFDGVDPTPIFERIQLALPQIGALVLSDYAKGALNSVQPMIQLARKANVPVLIDPKGSDFERYRGATLLTPNLSEFEAVVGRCKNEEELVNRGMQLVADFELSALLVTRSEQGMTLLQLGKPPLHLPTQAKEVFDVTGAGDTVIGVLAAALAAGNSLEESCFLANAAAGVVVGKLGTSTVSPIELENAIRGRAETGFGVMDEQQLKIAVAQARQRGEKVVMTNGIFDILHAGHVSYLANARKLGDRLIVAVNSDASTKRLKGEKRPVNPLEQRMVVLGALEAVDWVVPFEEDTPQRLIADILPDLLVKGGDYKPHEIAGSEEVWAAGGEVKVLNFEDGVSTTNIIQSIKNGRG”, which “soluble on expression in E. coli” value is on record?
A: not soluble

Q: Which “soluble on expression in E. coli” value does the source give for “MKVYSKDDIVEQAKELAKMISETEEVDFFKKAEAQIHKNENVKRAIDEIKALQKQAVNLQHYGKWEALKKVEAEIDALQDKLDSIPVVQQFKSSQTYVNDLLQLVASTISNNVTDEILISTGGDVLKGETGAAVESKKGNCGC” here?
A: not soluble

Q: With “MKWRSRQLSFSSAKWYGDVIWIFDPGIIGAQIDNEGDLKKCFIQTLFHSTGSRQSIRIWWREIMLSLILRIYLDKFLPWISLSIKEVGESSVINFSLWGCLHGTRFRRWYSPFQKLSALAITKKDVISSSWRCFNGMRCN” as the sequence, how does the “soluble on expression in E. coli” value read?
A: soluble

Q: For “MKYGIVIFPPKRIQDFANSYRKRYDSHYALIPPHITLKYPFEADEEQIKKMAKELRRIAAETPPIPIKVTKFSSFYPTSNIIYLKVEPNDVLERLHEQLHSGLFAGKPEFVFVPHITIGRDLPGAEYADVYSQLKLQDVHFEETVDRFHLLYQLENGSWTVYETFIVGGKETV”, which “soluble on expression in E. coli” value is on record?
A: soluble

Q: With “MKYPPSLVSLIRELSRLPGIGPKSAQRLAFHLFEQPREDIERLASALLEAKRDLHVCPICFNITDAEKCDVCADPSRDQRTICVVEEPGDVIALERSGEYRGLYHVLHGVLSPMNGVGPDKLHIKPLLPRVGQGMEVILATGTTVEGDATALYLQRLLEPLGAAISRIAYGVPVGGSLEYTDEVTLGRALTGRQTVSKPQPPQRPGDEDGADGAAVPASRLEHHHHHH” as the sequence, how does the “soluble on expression in E. coli” value read?
A: soluble

Q: Which “soluble on expression in E. coli” value does the source give for “MKYTIEEIRQMQEGQTFDCKSILIEPKHLATIIVAMANADGGMIAVGISDKTRRIEGVNQDKEHLNDILRTPLDFCVPSVSVTTDYVPCTDAEGRDNRVLLMHIPASPRLHANQADEVFWRVGDKSRKLTFDERLQLMYDKGERYYEDSTAYDATLDDIDMDAVKAYMKRIGYGKSAMEYLQENKGFVTYKGDVPQVSAACILLFGKHPQTFFPRARVRFIKYFGTEEKVGREMNVIKDVTFDGRILEQIQKTVEYLETQVKEHSYLGEDGIFKTDREYPKFVIQEMVVNSVCHRDYSIKGTEIQIKMFDDRLVFETPGKLPGIVRTDNIRHTHFSRNPKIAEFLKAYDYVKEFGEGVDRMCRELSALGVKEPQYNLVAFIMKATVCAKVLEERQGTNHFDQKRPESDQKSDQMRIILELIKSNPNISRTELSEKTGLHDSSVKRRLKTLVDEGLIQRVGPDKGGQWKVIGSLLEHHHHHH” here?
A: soluble

Q: With “MLAFGPVPSRRLGRSLGVNNIPAKICSYACVYCQIGKTLKMEVERRKFYEPERIYNDVSAKVKSGERIDYITFVPDGEPTLDINLGKEAEMLRDFGIKLAILTNSSLIWREDVREDLMNFDLVSLKLDAVSDDIWRKVNRPHKSLSLEKILEGMLDFRKEFKGTIITETMLINIDYGEELEKIATFLKELKPDKAYIAIPTRPPAESWVKPASEVIINKAYQLFSEALGEERVEYLIGYEGNAFAFTGNVEEDLLSITAVHPMREEAVRELLRKAGASWDVVEKMIKEGKLIELEYNGKKFYMRKLGSR” as the sequence, how does the “soluble on expression in E. coli” value read?
A: not soluble

Q: With “MLAILYDRIRPDERMLFERAEALGLPYKKVYVPALPMVLGERPKELEGVTVALERCVSQSRGLAAARYLTALGIPVVNRPEVIEACGDKWATSVALAKAGLPQPKTALATDREEALRLMEAFGYPVVLKPVIGSWGRLLAKVTDRAAAEALLEHKEVLGGFQHQLFYIQEYVEKPGRDIRVFVVGERAIAAIYRRSAHWITNTARGGQAENCPLTEEVARLSVKAAEAVGGGVVAVDLFESERGLLVNEVNHTMEFKNSVHTTGVDIPGEILKYAWSLAS” as the sequence, how does the “soluble on expression in E. coli” value read?
A: soluble

Q: For “MLAKVLKKRGAVLRGDFVLSSGRRSSVYIDMRRLLGDESSYSVALDLLLEVGGQDLARSSAVIGVATGGLPWAAMLALRLSKPLGYVRPERKGHGTLSQVEGDPPKGRVVVVDDVATTGTSIAKSIEVLRSNGYTVGTALVLVDRGEGAGELLARMGVRLVSVATLKTILEKLGWGGE”, which “soluble on expression in E. coli” value is on record?
A: soluble

Q: Which “soluble on expression in E. coli” value does the source give for “MLALFYNKKLFEQAGLTKPPETWDELLEYAKIITEKTGKPGLAIYLGGFNRYVPVAVSNGAPKPWFEKPEDASWFDNPVVRETLTWYINLYRKGKVEREKKGLPPYVVAPEDVGAGWLGDAFGQQKVAMVISGNWMIPFLADQFPNFKYGEDWDIAPLPAGKNGRVTMVYTVILGINSKTKHPKEAWKFVEFILGPRGQKELVVKAGQTLPSMKGFENDP” here?
A: not soluble

Q: Which “soluble on expression in E. coli” value does the source give for “MLAMKLGIVGLGGWVTGAHIPALTDLGIKVDYCADIDEKRVKDLSQKTGCKGYLDYKEMLRNENPDLVLVAVPHSLHAIIALDAINNDANVYVEKPMATSFQEALTLVEASRKRNKILVVGHENRFNPAMLIAKKLIRGGEVGKIYHMRGFYIRQRGIPTSPTFIKKDLAKGGAVFDIGTHIIDLLLFLSDFPTPKSVTGKTYNAFSEDKTKFSAYPSPNLPNFKVEVEDFGSAFLKLGDEISAYVEVSWASYIKENKMEVVILGDNGGIHIDNGVLNFMRNIEDELFISSPLTQQKGSVYREVWRTVMESISKGFPEYPLCSAEQGAIGVAILESIYKSALEGREVKIDIPQWFLKQFQPRALEHHHHHH” here?
A: not soluble
